Measured values reported in patent US20190373867A1.

What was measured:
[1] = target: endogenous mouse SIRPα of wildtype C57BL/6 mice (NP_031573.2) (mouse (C57BL/6)) (UniProt P97797); assay: flow cytometry; CD47 protein on peritoneal cavity cells of wildtype C57BL/6 mice, detected with anti-CD47 human antibody and AF647-Anti-hIgG
[2] = target: endogenous mouse SIRPα of wildtype BALB/c mice (mouse (BALB/c)) (UniProt P97797); assay: flow cytometry; CD47 protein on peritoneal cavity cells of wildtype BALB/c mice, detected with anti-CD47 human antibody and AF647-Anti-hIgG

UniProt P97797, sequence (P97797 other isoform, or with tags, fused parts or gaps): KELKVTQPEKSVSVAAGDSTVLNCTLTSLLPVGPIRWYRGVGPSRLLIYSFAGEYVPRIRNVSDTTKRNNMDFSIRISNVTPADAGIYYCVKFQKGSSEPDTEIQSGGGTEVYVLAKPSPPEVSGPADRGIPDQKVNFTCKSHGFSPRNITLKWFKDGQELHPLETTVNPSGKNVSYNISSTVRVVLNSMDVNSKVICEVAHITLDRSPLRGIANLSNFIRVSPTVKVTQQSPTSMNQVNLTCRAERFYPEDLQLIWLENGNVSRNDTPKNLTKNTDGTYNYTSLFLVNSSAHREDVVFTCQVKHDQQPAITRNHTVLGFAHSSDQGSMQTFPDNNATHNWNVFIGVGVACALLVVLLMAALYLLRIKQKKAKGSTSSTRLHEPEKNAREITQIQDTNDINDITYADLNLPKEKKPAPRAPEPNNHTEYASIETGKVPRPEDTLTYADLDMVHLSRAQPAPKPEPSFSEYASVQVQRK

mouse CD47 proteins (added to peritoneal cavity cells, Example 16) (ligand)
geometric mean of flow cytometry signal [1]: 100 | geometric mean of flow cytometry signal [2]: 100
